Results from patent US20060046271A1 (VANDERBILT UNIVERSITY, published 2006).

Biological target: α2bβ3 receptor (mouse (endogenous, tumor-bearing …, UniProt Q9QUM0 32-1033; O54890 26-787)
Experiment: cell-based or functional assay

Chain of α2bβ3 receptor (mouse (Q9QUM0 32-1033, chain 1 of 2): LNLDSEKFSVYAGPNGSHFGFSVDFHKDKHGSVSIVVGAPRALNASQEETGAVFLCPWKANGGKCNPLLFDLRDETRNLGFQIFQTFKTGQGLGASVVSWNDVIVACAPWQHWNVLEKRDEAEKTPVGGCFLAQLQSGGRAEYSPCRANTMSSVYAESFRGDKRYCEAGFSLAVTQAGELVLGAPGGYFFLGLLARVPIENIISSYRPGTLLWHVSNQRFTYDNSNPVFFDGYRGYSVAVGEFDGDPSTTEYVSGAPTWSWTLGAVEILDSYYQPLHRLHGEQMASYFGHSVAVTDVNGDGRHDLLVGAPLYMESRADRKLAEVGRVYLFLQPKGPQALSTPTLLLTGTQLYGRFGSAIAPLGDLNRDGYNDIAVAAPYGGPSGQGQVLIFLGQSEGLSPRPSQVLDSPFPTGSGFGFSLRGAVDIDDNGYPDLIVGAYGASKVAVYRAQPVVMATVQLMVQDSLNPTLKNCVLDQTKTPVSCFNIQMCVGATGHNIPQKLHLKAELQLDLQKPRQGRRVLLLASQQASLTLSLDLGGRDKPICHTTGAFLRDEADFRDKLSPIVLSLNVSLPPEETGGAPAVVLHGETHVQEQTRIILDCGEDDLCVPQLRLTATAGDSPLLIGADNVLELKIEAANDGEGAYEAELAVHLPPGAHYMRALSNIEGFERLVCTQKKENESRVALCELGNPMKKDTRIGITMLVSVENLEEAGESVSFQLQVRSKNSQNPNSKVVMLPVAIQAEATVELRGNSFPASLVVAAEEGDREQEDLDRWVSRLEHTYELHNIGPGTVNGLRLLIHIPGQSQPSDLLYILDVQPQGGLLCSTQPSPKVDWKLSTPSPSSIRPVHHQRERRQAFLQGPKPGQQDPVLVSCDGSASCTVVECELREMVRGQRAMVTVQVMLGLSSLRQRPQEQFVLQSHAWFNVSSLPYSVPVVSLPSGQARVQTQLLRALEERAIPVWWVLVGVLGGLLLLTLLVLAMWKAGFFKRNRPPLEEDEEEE
Chain of α2bβ3 receptor (mouse (O54890 26-787, chain 2 of 2): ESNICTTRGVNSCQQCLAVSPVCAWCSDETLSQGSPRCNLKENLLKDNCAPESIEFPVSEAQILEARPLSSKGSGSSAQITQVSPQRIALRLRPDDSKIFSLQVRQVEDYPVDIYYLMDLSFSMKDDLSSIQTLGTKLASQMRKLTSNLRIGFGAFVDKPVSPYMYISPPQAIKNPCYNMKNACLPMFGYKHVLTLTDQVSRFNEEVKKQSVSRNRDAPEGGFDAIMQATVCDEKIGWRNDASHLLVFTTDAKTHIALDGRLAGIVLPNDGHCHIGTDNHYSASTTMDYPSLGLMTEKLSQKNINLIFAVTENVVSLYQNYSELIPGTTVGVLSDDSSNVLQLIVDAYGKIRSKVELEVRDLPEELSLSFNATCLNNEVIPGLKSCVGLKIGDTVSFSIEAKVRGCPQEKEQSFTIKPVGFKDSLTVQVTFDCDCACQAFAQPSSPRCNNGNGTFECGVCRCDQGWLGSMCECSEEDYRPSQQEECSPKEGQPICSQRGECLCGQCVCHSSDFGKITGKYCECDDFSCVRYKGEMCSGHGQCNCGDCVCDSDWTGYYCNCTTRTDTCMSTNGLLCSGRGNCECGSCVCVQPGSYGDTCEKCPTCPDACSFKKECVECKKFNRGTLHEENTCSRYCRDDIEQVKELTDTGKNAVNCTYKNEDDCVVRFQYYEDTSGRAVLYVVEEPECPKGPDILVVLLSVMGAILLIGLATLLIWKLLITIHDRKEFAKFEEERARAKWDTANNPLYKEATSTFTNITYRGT

B1: Phage encoding SLRGDGSSV (SEQ ID NO: 2) on the capsid protein (peptide)
peptide: MASMTGGQQMGTNQGKGVVAAGDKLALFLKVFGGEVLTAFARTSVTTSRHMVRSISSGKSAQFPVLGRTQAAYLAPGENLDDKRKDIKHTEKVITIDGLLTADVLIYDIEDAMNHYDVRSEYTSQLGESLAMAADGAVLAEIAGLCNVESKYNENIEGLGTATVIETTQNKAALTDQVALGKEIIAALTKARAALTKNYVPAADRVFYCDPDSYSAILAALMPNAANYAALIDPEKGSIRNVMGFEVVEVPHLTAGGAGTAREGTTGQKHVFPANKGEGNVKVAKDNVIGLFMHRSAVGTVKLRDLALERARRANFQADQIIAKYAMGHGGLRPEAAGAVVFQSGVMLNSLRGDGSSV
  phage binding in tumor (phage recovered, quantified by plaque formation): 4 fold
